This test deals with myc-tagged murine CARD11 L225LI (murine) (UniProt Q8CIS0). The experiment in a line: co-IP.

As to “myc-tagged murine CARD11 L225LI (from UniProt Q8CIS0 1-1159) (natural protein)”, the fold increase in apparent oligomerization against wild-type CARD11 stood at 3 fold.

For the origin of these results see paper PMC2943563.
